Positions count from the first letter of the chain named. Numbers in names are those of the source.
B1: B. megaterium levansucrase (Priestia megaterium DSM 319; K373H) (protein)
chain: KGNDSKDFNNSYGISHITRDNMVKIPQQQNSDQFKVPAFDESTIKNIASAKGKNASGNTIDLDVWDSWPLQNADGTVATYHGYQIVFALAGDPKDSNDTSVYLFYKKAGDKSIDSWKNAGRVFKDSDKFVPNDPHLKNQTQEWSGSGTLTKDGKVRLFYTDYSGKQYGKQTLTTAQVNMSQPNDNTLKVDGVEDYKSIFDGDGKIYQTVQQFIDEGGYDTGDNHTLRDPHYIEDNGHKYLVFEANTGTEDGYQGEDSLYNRAYYGGNNPFFQSEKKKLLEGSNKEKASLANGALGIIELNDDYTLKKVMKPLITSNTVTDEIERANIFKKDGKWYLFTDSRGSHMTIDGIGQDDVYMLGYVSNTLTGKYKPLNDTGLVLHMDLDPNDKTFTYSHFAVPQTKGDNVVITSYMTNRGFYEDNHSTFAPSFLVNIDGSKTSVVKDRVLEQGQLTVDED
notes: recombinant, E. coli BL21(DE3), pRSF-derived vector, purified from cleared lysate on CM sepharose
B2: B. megaterium levansucrase (Priestia megaterium DSM 319; K373L) (protein)
chain: B1 chain with H344L
notes: as for B1

Substrate: OC[C@H]1O[C@@](CO)(O[C@H]2O[C@H](CO)[C@@H](O)[C@H](O)[C@H]2O)[C@@H](O)[C@@H]1O
Test: initial rates, DNS reducing sugar assay, Michaelis-Menten fit
Format: biochemical, Priestia megaterium
Excerpt: initial rates, DNS reducing sugar assay, Michaelis-Menten fit on B. megaterium levansucrase

[1] = 50 mM Sörensen buffer pH 6.5, variant 1B1, global activity (hydrolysis and transfer)
[2] = 50 mM Sörensen buffer pH 6.5, variant 3C5, global activity (hydrolysis and transfer)

| Protein | Km [1] | kcat [1] | kcat/Km [1] | Km [2] | kcat [2] | kcat/Km [2] |
| --- | --- | --- | --- | --- | --- | --- |
| B1 | 41.8 ± 6.6 mM | 198 ± 8.4 s⁻¹ | 4720 M⁻¹ s⁻¹ |  |  |  |
| B2 |  |  |  | 12.5 ± 1.3 mM | 122 ± 2.3 s⁻¹ | 9800 M⁻¹ s⁻¹ |
